Experimental data reported in the RNAGym collection of RNA variant scans (doi:10.1073/pnas.2313332121).

B1: TPR t1 (parent)
chain: GACCAAUCUGCCCUCAGAGCUCGAGAACAUCUUCGGAUGCAGAGGAGGCAGGCUUCGGUGGCGCGAUAGCGCCAACGUCCUCAACCUCCAAUGCAUCCCACCACAUGAUGAUGCCUGAAGAGCCUUGGUUUUUUG

Variants of: B1
Assay: polymerase ribozyme fitness, log enrichment relative to wild type (log ratio); higher = more active; in vitro selection for triplet polymerase activity
Summary of the method: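 Genotype fitness is the logarithm of its enrichment divided by wild-type enrichment, using inverse-variance-weighted averages of replicates. That logarithm is base 2. Enrichment was measured by Illumina sequencing of input and output libraries from one triplicate in vitro selection round, with frozen incubation at −7 °C, on PCR-built, transcribed mutant libraries of each subunit of a heterodimeric triplet polymerase ribozyme, retaining genotypes with ≥10 input reads and ≥1 read per output.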

Row | Variant | polymerase ribozyme fitness (log ratio)
1 | G51C G69U | -2.95
2 | G51U C79G U87G | -1.09
3 | G51A G60C U92C U130A | -6.22
4 | G52C U55C | -0.101
5 | G52U C72U A121C | 0.242
6 | G52C C70U C76U U106A | -2.68
7 | G51U C88A U106A U112C | -3.27
8 | G51A G52A G61U C101U | -3.85
9 | G51U C56A C98U C99U C124A U131G | -6.41
10 | G52U C104A | -2.28
11 | C53A A74G | -0.303
12 | G52A C53G U59A A119U | -4.71
13 | G51A U78A C88G A121U | -1.45
14 | G51C C53A | -4.19
15 | G51U C72U U106A | -3.68
16 | G52C C56U | -0.823
17 | G52C C56A | -0.559
18 | C53A C89U U106C | -0.0062
19 | G52A C85G C124A | 0.15
20 | G52U U129A | -1.63
21 | G52C C53G A68G G77A U81A C98U | -5.4
22 | G52U C56A | -1.92
23 | G52A U78A C115A | 0.0466
24 | G51U U54A C89U U129C | -2.82

Row | Variant | polymerase ribozyme fitness (log ratio)
25 | G51C G60C A75U | -2.9
26 | G52A C70U C102U | -2.87
27 | G51C C82A | -4.42
28 | G52U C82G | -2.18
29 | C53A C88G C104A U129A | -3.51
30 | C53A A111C | 0.297
31 | G52A G58U C73G | -0.432
32 | G52U G63C U92A | -4.96
33 | G52U G63A | -1.95
34 | G52U G63C | -0.581
35 | G52A C62A U87A | -3.07
36 | G52U G120U | -0.714
37 | G52A U92G | -2.95
38 | G51C G93C | -4.73
39 | G52U A121G | 1.06
40 | G51A G77C U116C A118C | -5.43
41 | G51U C72A U130G | -3.04
42 | G52U G61U A118G U129A | -1.85
43 | G52A C56U C72U G113C U125A | -2.88
44 | G51U C72A | -2.55
45 | G51U C115U | -4.89
46 | G51U G60A C123U | -1.47
47 | G52U G61A G110U | -2
48 | G52A C70U C104A C124G | -3.65

Row | Variant | polymerase ribozyme fitness (log ratio)
49 | C53A C70A A75U C79A C82G U112C | -3.2
50 | G51C A91C U112A U131C | -6.14
51 | G51A G60A C80A A95G A111G | -4.57
52 | G52A G61A | -0.531
53 | G52A G61A G127U | -1.95
54 | G52A G93U G120A | -0.0896
55 | G51U A74C A121C | -0.422
56 | C53A C70A | -1.81
57 | G52C G69A | -3.55
58 | G52C G69U | -0.241
59 | G51C G127U | -5.2
60 | G51U A74G | -2.72
61 | G52U U59C C85U C124U | -1.1
62 | G51C G61U | -5.29
63 | G52U A83U G127A | -3.16
64 | G52C U59C G60U A66G | -5.6
65 | G52C G122A | -1.3
66 | C53A C79A C104A U106A U132C | -3.18
67 | G52C U132A | -1.09
68 | G52U C73U | -0.9
69 | G52C G71U | -0.867
70 | G52C G61A C72U | -0.0205
71 | G52U U55G C82A C89G | -3.64
72 | G51U G52A C79A | -5.44

Row | Variant | polymerase ribozyme fitness (log ratio)
73 | C53A C56U C72G A111C | -1.38
74 | G52A G57C C72U U116A U129C | -4.37
75 | G52A A74U C80U | -1.78
76 | G51U G93C | -4.26
77 | C53A C76U U87C | -0.534
78 | G52U U81C | -1.74
79 | G51U G60A | -2.28
80 | G51C C70G U109G | -7.25
81 | G51U G120C | -2.42
82 | G51U G120U | -3.69
83 | G51A G71A G93A U129C | -5.9
84 | G52U G71U | -0.703
85 | G51C G71A C82G C85A | -4.52
86 | G52A G57A G113A | -0.88
87 | G52U U106C A118G | -0.754
88 | G51U U109A G128U | -5.92
89 | G52U C64U | -0.768
90 | G52C U54G C82G | -1.46
91 | G51C C80G | -1.85
92 | G52A C56U G93A | -0.382
93 | G52U A103U | -6.74
94 | G52U G58C C79U | -0.312
95 | G52C C53U G71U | -0.538
96 | G51C C99U | -7.54

Row | Variant | polymerase ribozyme fitness (log ratio)
97 | G51A U78C | -2.47
98 | G52U U92C C114G | -5.11
99 | G52A C64G C88G G120U | -6.36
100 | G52U C72U | -0.747
101 | C53A C64U C99U U133G | -4.1
102 | G51A G69C U112A | -5.2
103 | G52U A84C G93C | -2.23
104 | G51A C115G | -4.23
105 | G52C G63C U87C | -0.694
106 | G51A G52A U54C | -4.49
107 | G52A A68G G93A | -5.07
108 | G52A C56U U59G C114U C124A G135C | -0.522
109 | G52A C73G | -2.63
110 | G52A C73A | -0.179
111 | G52C C64U C123U | -0.169
112 | G51C G57C C73A G77U U78G | -3.02
113 | G51U C101U G120U | -4.49
114 | G52A G122A | -0.494
115 | G52A A118U | 0.938
116 | G52U U67G C101U G120C | -6.94
117 | G52U C79G A83G A121G U132A | 0.919
118 | G52A U133A | -0.415
119 | G51C U130A | -3.62
120 | G52A C104U G110C | -2.99

Row | Variant | polymerase ribozyme fitness (log ratio)
121 | C53A C86U G128U | -1.61
122 | G51A G93U C104U | -3.96
123 | G51A G63U C80A U96G | -5.76
124 | G52C U81A U130A | -2.3
125 | G51U G52C U96C | -3.75
126 | G52C C114U | -3.57
127 | G52U C53U | -1.04
128 | G52C U78C G117U | -2.77
129 | G52U C72G A121G | 1.49
130 | G51C G61A G120A U132A | -2.03
131 | G51U G61C G117C U131G | -7.34
132 | G51U G60U C73G | -2.23
133 | G52A G69A | -3.61
134 | G52A G69C | -1.72
135 | G52A G60U C82A C88U A90G U116A U130A | -6.12
136 | G52C U67A C70A G117C | -6.05
137 | G52A C72A | 0.151
138 | G51U C53A G60A | -5.54
139 | G52C U54G U87C A100U | -1.94
140 | G52U U126G | -2.79
141 | G52A C56A | -0.146
142 | G52U C72A C104U A111G G113A | -2.25
143 | C53A C56G U81G C101G U129C | -2.89
144 | G52U U92A C104U | -4.43

Row | Variant | polymerase ribozyme fitness (log ratio)
145 | G52U C124A | 0.485
146 | G52A U126C | -1.17
147 | G52C C101A | -2.34
148 | G52A G71C G93C | -5.59
149 | G52C C56A C72G U132C | -3.89
150 | G52U G63U A119G G120U A121U | -0.023
151 | G52A C70A U92A G93C A105U U112A C115A U130C | -6.48
152 | G51A C86U C94G G120C | -6.29
153 | G51U U112A U133C | -3.27
154 | G52U C72A C85A U106A G110U | -3.08
155 | G52U U54G G69C | -4.27
156 | G52C U131A | -0.555
157 | G52A C88G | -0.655
158 | G51U U54A C123G U129A | -2.43
159 | G52U C70U G113U | -5.82
160 | G52U U55C C79U | -0.237
161 | G51C C101U | -3.94
162 | G51A U54G C72G C80A C82G | -4.89
163 | G52A G63A C73U U81C C114A | -7.55
164 | G51U U54G C62A G113U | -7.8
165 | G52A G120C | 0.847
166 | G51U U55A C64U C114G C115U C123U | -7.28
167 | G51C G61A C94U C97U | -3.52
